Conditions: Saccharomyces cerevisiae (strain ATCC 204508 / S288c), pH 4.6, Thermal, CD, Unknown, reversible: yes

Chain of Cytochrome c isoform 1 Y103F, P00044 (P00044 whole entry Y103F, canonical isoform): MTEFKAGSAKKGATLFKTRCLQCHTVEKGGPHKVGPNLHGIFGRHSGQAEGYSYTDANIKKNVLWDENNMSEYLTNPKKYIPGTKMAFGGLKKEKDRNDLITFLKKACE
Chain of Cytochrome c isoform 1 F16I, P00044 (P00044 whole entry F16I, canonical isoform): as the sequence (P00044 whole entry Y103F, canonical isoform) above, with F16I, F103Y counted along it
Chain of Cytochrome c isoform 1 F16W, P00044 (P00044 whole entry F16W, canonical isoform): as the sequence (P00044 whole entry Y103F, canonical isoform) above, with F16W, F103Y counted along it
Chain of Cytochrome c isoform 1 L100I|Y103F, P00044 L100I Y103F (P00044 whole entry L100I/Y103F, canonical isoform): as the sequence (P00044 whole entry Y103F, canonical isoform) above, with L100I counted along it
Chain of Cytochrome c isoform 1 wild type, P00044 (P00044 whole entry, canonical isoform): as the sequence (P00044 whole entry Y103F, canonical isoform) above, with F103Y counted along it
Chain of Cytochrome c isoform 1 L100V, P00044 (P00044 whole entry L100V, canonical isoform): as the sequence (P00044 whole entry Y103F, canonical isoform) above, with L100V, F103Y counted along it
Chain of Cytochrome c isoform 1 L100T, P00044 (P00044 whole entry L100T, canonical isoform): as the sequence (P00044 whole entry Y103F, canonical isoform) above, with L100T, F103Y counted along it
Chain of Cytochrome c isoform 1 L100I, P00044 (P00044 whole entry L100I, canonical isoform): as the sequence (P00044 whole entry Y103F, canonical isoform) above, with L100I, F103Y counted along it
Chain of Cytochrome c isoform 1 L100A, P00044 (P00044 whole entry L100A, canonical isoform): as the sequence (P00044 whole entry Y103F, canonical isoform) above, with L100A, F103Y counted along it
Chain of Cytochrome c isoform 1 F16Y, P00044 (P00044 whole entry F16Y, canonical isoform): as the sequence (P00044 whole entry Y103F, canonical isoform) above, with F16Y, F103Y counted along it
Chain of Cytochrome c isoform 1 L100A|Y103F, P00044 L100A Y103F (P00044 whole entry L100A/Y103F, canonical isoform): as the sequence (P00044 whole entry Y103F, canonical isoform) above, with L100A counted along it
Chain of Cytochrome c isoform 1 Y103A, P00044 (P00044 whole entry Y103A, canonical isoform): as the sequence (P00044 whole entry Y103F, canonical isoform) above, with F103A counted along it

Substance	Tm (structure 1YCC) [°C]	change of melting temperature, mutant - wild type (higher = more stable) (structure 1YCC) [°C]	heat capacity change of unfolding (structure 1YCC) [kcal/mol/K]	unfolding enthalpy (van 't Hoff) (structure 1YCC) [kcal/mol]	heat capacity change of unfolding (52.8 °C, structure 1YCC) [kcal/mol/K]	unfolding free energy (52.8 °C, structure 1YCC) [kcal/mol]	heat capacity change of unfolding (52.8 °C) [kcal/mol/K]	unfolding free energy (52.8 °C) [kcal/mol]	Tm [°C]	heat capacity change of unfolding [kcal/mol/K]	unfolding enthalpy (van 't Hoff) [kcal/mol]
Cytochrome c isoform 1 F16I, P00044	48.5	-4.3	1.57	79.9							
Cytochrome c isoform 1 F16W, P00044	47.6	-5.2	1.6	75.6							
Cytochrome c isoform 1 F16Y, P00044	50.9	-1.9	1.26	75.5							
Cytochrome c isoform 1 L100A, P00044	36.6	-16.2	1.94	52.6							
Cytochrome c isoform 1 L100A|Y103F, P00044 L100A Y103F	33.4	-19.4	1.78	53.7							
Cytochrome c isoform 1 L100I, P00044	54.1	1.3	1.81	87.2	1.81	0.33					
Cytochrome c isoform 1 L100I|Y103F, P00044 L100I Y103F	49.9	-2.9	1.76	79.9							
Cytochrome c isoform 1 L100T, P00044	38.9	-13.9	1.49	57.8							
Cytochrome c isoform 1 L100V, P00044	48.8	-4	1.54	81.6							
Cytochrome c isoform 1 Y103A, P00044	31.1	-21.7	1.77	49.2							
Cytochrome c isoform 1 Y103F, P00044	53.8	1	1.53	84.5	1.53	0.24					
Cytochrome c isoform 1 wild type, P00044							1.37	0	52.8	1.37	82.5

— FireProtDB (doi:10.1021/bi00010a017)
